The values below come from US11957698B2, “Synergistic combination of thermolysin and an antibacterial agent to reduce or eliminate bacterial biofilms from surfaces” (SMITH & NEPHEW, INC., priority 2017, dated 2024).

Type in all cases: cell-based
Assay [1] has as its system S. aureus ATCC 29213. Description: Minimum inhibitory concentration (MIC) in bacteria suspension. The settings on record: for MIC values: thermolysin, where present, kept constant at 50 μg/mL. As to the method:
(§1) The concentration of thermolysin in the MIC experiments was kept constant at 50 μg/mL.

The test system of assay [2] is P. aeruginosa ATCC 27312. The description is as above. The settings on record: for MIC values: thermolysin, where present, kept constant at 50 μg/mL. The method, then: as §1
The test system of assay [3] is P. aeruginosa ATCC 15442 bacterial biofilm. Description: In-vitro gram-negative bacterial biofilm study, 96 well plate, crystal violet staining. The settings on record: 18 hours at 37° C., FIG. 2. The method, then: An in-vitro assay was performed to determine the bacterial biofilm reduction capabilities of thermolysin and collagenase on gram-negative bacterial biofilms. In this assay P. aeruginosa ATCC 15442 was suspended in a growth media of 10% tryptic soy broth in PBS supplemented with 0.45% glucose (TSBG). The suspension was transferred to the wells of sterile 96 well plates and incubated for 18 hours at 37° C., then the media was changed with fresh media and incubated an additional 8 hours at 37° C. After formation of the bacterial biofilm, the growth media was replaced with solutions of thermolysin dissolved in TSBG growth media at various concentrations in some wells and replaced with solutions of collagenase dissolved in growth media at the same concentrations in other wells (enzyme concentrations were 0.00001 mg/mL, 0.0001 mg/mL, 0.001 mg/mL, 0.01 mg/mL, 0.1 mg/mL, 1.0 mg/mL, and 10 mg/mL). After 18 hours at 37° C., the remaining attached bacteria were quantified by removing the enzyme solutions (enzyme+TSBG growth media) and washing the plate thoroughly followed by crystal violet staining and recording the absorbance at 570 nm. A growth media control without enzyme was also tested. […] A decreased absorbance compared to the Control indicates a reduction of attached bacteria meaning a reduction of the bacterial biofilm occurred.

Assay [4] concerns S. aureus ATCC 6538 bacterial biofilm. Put plainly: In-vitro gram-positive bacterial biofilm study, 96 well plate, crystal violet staining. The settings on record: concentrations of 0.00001 mg/mL-10 mg/mL, 16 hours, FIG. 1. The method, then: An in-vitro assay was performed to determine the bacterial biofilm reduction capabilities of thermolysin and collagenase on gram-positive bacterial biofilms. In this assay, S. aureus ATCC 6538 was suspended in a growth media of tryptic soy broth supplemented with 0.25% glucose for optimal bacterial biofilm formation. The suspension was transferred to the wells of sterile 96 well plates and incubated for 22 hours at 37° C. with one change of media. After formation of the bacterial biofilm, the growth media was replaced with solutions of thermolysin dissolved in growth media at various concentrations in some wells and replaced with solutions of collagenase dissolved in growth media at the same concentrations in other wells (enzyme concentrations were 0.000001 mg/mL, 0.00001 mg/mL, 0.0001 mg/mL, 0.001 mg/mL, 0.01 mg/mL, 0.1 mg/mL, 1.0 mg/mL, and 10 mg/mL). After 16 hours, the remaining attached bacteria were quantified by aspirating the enzyme solutions (enzyme+growth media) and washing the plate thoroughly followed by crystal violet staining and recording the absorbance at 570 nm. A growth media control without enzyme was also tested. The crystal violet binds to negative charges on the remaining attached bacteria and the EPS. A decreased absorbance compared to the Control indicates a reduction of attached bacteria meaning a reduction of the bacterial biofilm occurred.

Turning to gentamicin sulfate, the MIC values in assay [1] (Rep 1) was 1.6 mg/L; in assay [1] (Rep 2), 1.6 mg/L; in assay [2] (Rep 1) it was 50 mg/L; in assay [2] (Rep 2), 50 mg/L.

B1: thermolysin (protein, UniProt P00800 233-548, looked up)
Thermolysin: ITGTSTVGVGRGVLGDQKNINTTYSTYYYLQDNTRGNGIFTYDAKYRTTLPGSLWADADNQFFASYDAPAVDAHYYAGVTYDYYKNVHNRLSYDGNNAAIRSSVHYSQGYNNAFWNGSQMVYGDGDGQTFIPLSGGIDVVAHELTHAVTDYTAGLIYQNESGAINEAISDIFGTLVEFYANKNPDWEIGEDVYTPGISGDSLRSMSDPAKYGDPDHYSKRYTGTQDNGGVHINSGIINKAAYLISQGGTHYGVSVVGIGRDKLGKIFYRALTQYLTPTSNFSQLRAAAVQSATDLYGSTSQEVASVKQAFDAVGVK
As for B1, the figures for the “effect in reducing the bacterial biofilm (crystal violet absorbance at 570 nm vs growth media control)” value in assay [3] (concentrations of 0.00001 mg/mL-0.01 mg/mL), in assay [3] (concentrations of 0.1 mg/mL-10 mg/mL) and in assay [4] were “little effect”, “no effect” and “had an effect in reducing the bacterial biofilm”, respectively. The “effect of the addition of thermolysin on the MIC of gentamicin sulfate” value in assay [1] (thermolysin 50 μg/mL) and in assay [2] (thermolysin 50 μg/mL) was “did not affect the MIC” throughout.
